{"source": "paper PMC2925389", "about": "“Pre-Steady-State Kinetic Analysis of Truncated and Full-Length Saccharomyces cerevisiae DNA Polymerase Eta” (Journal of Nucleic Acids, 2010)", "key": {"[1]": {"target": "T1, yPolη full-length (Saccharomyces cerevisiae) (UniProt Q04049)", "T1 sequence": "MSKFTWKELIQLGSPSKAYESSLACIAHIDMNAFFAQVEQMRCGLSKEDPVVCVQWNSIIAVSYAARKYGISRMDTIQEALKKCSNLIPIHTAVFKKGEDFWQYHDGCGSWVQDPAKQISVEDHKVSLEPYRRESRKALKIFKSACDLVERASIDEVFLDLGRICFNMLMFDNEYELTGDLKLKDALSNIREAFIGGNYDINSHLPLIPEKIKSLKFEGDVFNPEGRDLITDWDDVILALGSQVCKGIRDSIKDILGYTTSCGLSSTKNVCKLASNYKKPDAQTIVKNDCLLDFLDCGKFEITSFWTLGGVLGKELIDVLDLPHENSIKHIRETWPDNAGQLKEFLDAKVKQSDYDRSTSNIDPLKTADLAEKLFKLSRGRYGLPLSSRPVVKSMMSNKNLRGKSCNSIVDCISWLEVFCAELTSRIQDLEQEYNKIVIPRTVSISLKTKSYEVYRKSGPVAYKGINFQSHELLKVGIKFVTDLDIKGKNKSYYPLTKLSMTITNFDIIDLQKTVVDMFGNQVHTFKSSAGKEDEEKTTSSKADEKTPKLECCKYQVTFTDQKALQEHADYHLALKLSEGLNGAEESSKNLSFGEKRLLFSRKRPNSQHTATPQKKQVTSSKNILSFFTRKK", "assay": "fluorescence titration (2-aminopurine)", "conditions": "2-aminopurine at position 19 of the 41-mer template (X, written as A); 23°C, buffer A (composition not in material; without BSA for fluorescence); EMSA 10 nM DNA, 10-450 nM protein, 20 min, 4.5% native gel, 40 mM Tris in running …"}, "[2]": {"target": "T2, yPolη truncated (catalytic core) (Saccharomyces cerevisiae) (UniProt Q04049)", "T2 sequence": "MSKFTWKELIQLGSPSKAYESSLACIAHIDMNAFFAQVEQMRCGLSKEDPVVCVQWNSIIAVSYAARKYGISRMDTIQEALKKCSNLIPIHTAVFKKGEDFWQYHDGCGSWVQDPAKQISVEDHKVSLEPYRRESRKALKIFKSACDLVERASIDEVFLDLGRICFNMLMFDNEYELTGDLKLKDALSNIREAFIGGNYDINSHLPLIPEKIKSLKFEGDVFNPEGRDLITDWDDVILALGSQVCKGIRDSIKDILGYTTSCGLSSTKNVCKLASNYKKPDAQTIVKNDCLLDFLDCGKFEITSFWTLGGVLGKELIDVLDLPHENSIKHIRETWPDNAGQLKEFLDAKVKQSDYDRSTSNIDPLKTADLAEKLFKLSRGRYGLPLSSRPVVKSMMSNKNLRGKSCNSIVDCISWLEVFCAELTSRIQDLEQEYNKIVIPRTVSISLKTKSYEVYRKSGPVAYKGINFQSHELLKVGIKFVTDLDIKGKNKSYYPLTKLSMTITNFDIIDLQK", "assay": "fluorescence titration (2-aminopurine)", "conditions": "2-aminopurine at position 19 of the 41-mer template (X, written as A); 23°C, buffer A (composition not in material; without BSA for fluorescence); EMSA 10 nM DNA, 10-450 nM protein, 20 min, 4.5% native gel, 40 mM Tris in running …"}}, "data": [{"sequence": "CGCAGCCGTCCAACCAACTCA / GGACGGCATTGGATCGACACTGAGTTGGTTGGACGGCTGCG [F-8 21/41-mer]", "values": [{"measurement": "Kd", "setting": "[1]", "value": 7, "unit": "nM"}, {"measurement": "Kd", "setting": "[2]", "value": 13, "unit": "nM"}]}]}
